14 molecules from US20210130452A1 (Merck KGaA, published 2021) can be followed below.

The target in assay [1] is T1, human IL-17A (human, UniProt Q16552 24-155, biotinylated with Sulfo-NHS-LC-Biotin in the AlphaScreen assays only).
T1 construct: also called hIL-17A; recombinant human IL-17A
Kind of assay: SPR Biacore, hIL-17A on chip; purified protein. On the technique in general: SPR reads the build-up and loss of mass on a sensor chip optically.

Assay [2] has as its target T1, human IL-17A. Kind of assay: cell-based or functional assay.
Assay [3] deals with T1, human IL-17A. Kind of assay: AlphaScreen competition, hIL-17A - IL-17RA-Fc.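 Also: receptor Fc-fusion plus Acceptor and streptavidin Donor beads incubated with the mixture for 1 h at room temperature before reading.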 Background: Alpha assays give light when donor and acceptor beads are brought close together.
Description: (§1) To this mixture, the IL-17RA or IL-17RC Fc-fusions, Acceptor beads and the streptavidin Donor beads were added and further incubated for 1 hour at RT.
The target of assay [4] is T1, human IL-17A. Kind of assay: AlphaScreen competition, hIL-17A - IL-17RC-Fc.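 Also: Read-out after 1 h at room temperature with the receptor Fc-fusion, Acceptor beads and streptavidin-coated Donor beads present.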
Description: as §1
A further assay has as its target T2, human IL-17F (human, UniProt Q96PD4 31-163, biotinylated with Sulfo-NHS-LC-Biotin in the AlphaScreen assays only).
T2 construct: also called hIL-17F; recombinant human IL-17F
T2 sequence: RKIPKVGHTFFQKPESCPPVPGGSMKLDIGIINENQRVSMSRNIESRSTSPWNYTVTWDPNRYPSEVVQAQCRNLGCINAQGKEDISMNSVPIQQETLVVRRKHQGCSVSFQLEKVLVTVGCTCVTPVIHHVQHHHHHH
Kind of assay: SPR Biacore, hIL-17F on chip; periplasmic extract (*); NB = no binding.

The target of assay [5] is T3, human IL-17A/F heterodimer (human, UniProt Q16552 24-155; Q96PD4 31-163, limits assumed, biotinylated with Sulfo-NHS-LC-Biotin in the AlphaScreen assays only). Kind of assay: cell-based or functional assay.
For assay [6], the target named is T3, human IL-17A/F heterodimer. Kind of assay: SPR Biacore, hIL-17A/F on chip; purified protein.
Assay [7] has as its target T3, human IL-17A/F heterodimer. Kind of assay: AlphaScreen competition, hIL-17A/F - IL-17RC-Fc.
Description: as §1
Assay [8] deals with T3, human IL-17A/F heterodimer. Kind of assay: AlphaScreen competition, hIL-17A/F - IL-17RA-Fc.
Description: as §1
Assay [9] has as its target T4, human IL-17A (human, UniProt Q16552 24-155).
T4 construct: secreted form (GenBank U32659) expressed in Hek293 with C-terminal 6-His; also called hIL-17A; IL-17A-6HIS
Kind of assay: ELISA, coated IL-17A. (In general: ELISA stands for enzyme-linked immunosorbent assay.)
Description: (§2) Binding of a selected panel of anti-IL-17 Nanobodies to IL-17 of other species was assessed using a binding ELISA. […] HRP (horseradish peroxidase) conjugated anti-myc (Serotec, MCA 2200P) was used for detection using esTMB as substrate.

The target of the next assay is guinea pig IL-17A (guinea pig). Kind of assay: ELISA, coated IL-17A.
The target of another assay is T5, rat IL-17F (rat, UniProt Q5BJ95 29-161).
T5 sequence (looked up): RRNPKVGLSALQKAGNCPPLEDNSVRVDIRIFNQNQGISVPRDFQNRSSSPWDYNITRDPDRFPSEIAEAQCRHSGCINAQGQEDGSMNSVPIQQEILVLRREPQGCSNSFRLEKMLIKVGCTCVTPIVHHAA
Kind of assay: ELISA, coated IL-17F.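 Also: binding ELISA on coated antigen from various species, with bound Nanobodies revealed by an HRP-linked anti-myc antibody and esTMB substrate.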

For another assay, the target named is T6, mouse IL-17F (mouse, UniProt Q7TNI7 29-161).
T6 sequence (looked up): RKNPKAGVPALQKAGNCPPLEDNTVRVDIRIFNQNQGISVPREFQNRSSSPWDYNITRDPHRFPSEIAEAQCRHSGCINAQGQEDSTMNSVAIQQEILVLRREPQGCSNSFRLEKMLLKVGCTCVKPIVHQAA
Kind of assay: ELISA, coated IL-17F.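 Also: binding ELISA on coated antigen from various species, with bound Nanobodies revealed by an HRP-linked anti-myc antibody and esTMB substrate.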

The target in the next assay is T7, marmoset IL-17A (marmoset, IL-17A is a disulfide-linked homodimer. One chain is given.).
T7 chain: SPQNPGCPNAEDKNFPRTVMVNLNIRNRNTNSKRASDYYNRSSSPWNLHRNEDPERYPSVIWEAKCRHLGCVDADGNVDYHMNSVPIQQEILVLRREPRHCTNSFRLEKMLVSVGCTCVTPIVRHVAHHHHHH
Kind of assay: ELISA, coated IL-17A.

T1 sequence (Q16552 other isoform, or with tags, fused parts or gaps): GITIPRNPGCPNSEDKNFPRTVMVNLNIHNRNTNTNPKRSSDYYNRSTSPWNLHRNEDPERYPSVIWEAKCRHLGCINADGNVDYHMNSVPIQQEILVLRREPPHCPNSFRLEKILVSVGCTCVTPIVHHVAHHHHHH
T4 sequence (Q16552 other isoform, or with tags, fused parts or gaps): as above
T3 sequence (Q16552 24-155 limits assumed, chain 1 of 2, one chain of several): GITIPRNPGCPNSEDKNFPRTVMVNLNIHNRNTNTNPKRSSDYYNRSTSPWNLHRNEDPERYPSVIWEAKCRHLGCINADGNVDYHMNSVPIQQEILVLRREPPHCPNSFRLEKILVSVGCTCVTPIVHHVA
Description for guinea pig IL-17A: as §2
Description for human IL-17F: Off-rates of the periplasmic extracts containing anti-IL-17 Nanobodies were measured by Surface Plasmon Resonance (SPR) using a Biacore T100 instrument. […] Periplasmic extracts containing IL-17 neutralizing Nanobodies were injected for 2 minutes at a flow rate of 45 μl/min to allow binding to chip-bound antigen. Next, binding buffer without periplasmic extracts was sent over the chip at the same flow rate to allow spontaneous dissociation of bound Nanobody. From the sensorgrams obtained for the different periplasmic extracts koff-values (k₄) were calculated.
Description for marmoset IL-17A: as §2
Description for mouse IL-17F: as §2
Description for rat IL-17F: as §2

B1: 11C08 (VHH)
VHH: EVQLVESGGGLVQAGGSLRLSCAASGVIFRLNAMGWYRAAPGKQRELVAIIVNGGSTNYADSVKGRFTISRDSAKNAVYLQMNSLKPEDTAVYYCYYNIPGDVYWGQGTQVTVSS
notes: Class 4 Nanobody (cross-reactive: anti-IL-17A, IL-17F and IL-17A/F); not shown: c-myc, His6 tag
As a reminder, the koff is the rate constant with which the complex falls apart. In general, IC50 refers to the midpoint of a concentration-inhibition curve. Read a high IC50 as weaker potency. On to B1, for which the koff in the assay with human IL-17A [1] turned out to be 0.0079 s⁻¹. Further, in the assay with human IL-17A [2], the “IL-17A-induced IL-6 production in HT-1080 cells, Emax” value (“IL-17A-induced IL-6 production … Emax” below) amounted to 73% and the “IL-17A-induced IL-6 production in HT-1080 cells, IC50” value (“IL-17A-induced IL-6 production … IC50” for short) stood at 130 nM. The molecule also came in with an IC50 with human IL-17A [3] of 2.12 nM. This molecule also had an IC50 with human IL-17A [4] of 4.8 nM.

B2: 02A08 (VHH)
VHH: EVQLVESGGGVVQPGGSLRLSCADSERSFSFNAMGWFRQAPGKEREFVAAISATGDDTYYADSVKGRFAISRDTARNTVYLQMNSLKPEDTAVYYCGARVNFDGTVSYTNDYAYWGQGTQVTVSS
notes: Class 2 Nanobody (anti-IL-17A and IL-17A/F); not shown: c-myc, His6 tag
As for B2, the dissociation rate constant (koff) with human IL-17A [1] amounted to 0.00042 s⁻¹. In the assay with human IL-17A [2], the “IL-17A-induced IL-6 production … Emax” value worked out at 103% and the “IL-17A-induced IL-6 production … IC50” value came out at 8.8 nM. In the assay with human IL-17A [3], this molecule had an IC50 of 0.126 nM. The IC50 in the assay with human IL-17A [4] was 0.419 nM.

B3: 04B09 (VHH)
VHH: EVQLVESGGGLVQPGGSLRLSCAASGFTLGYYAIGWFRQAPGKEREGVSCDSSSDGDTYYANSVKGRFTISTDNGKNTVYLQMNSLKPEDTAVYYCATCTDWNYDYWGQGTQVTVSS
notes: as for B2
For the molecule B3, the binding result with human IL-17F is given as “no binding”.

B4: 11A06 (VHH)
VHH: EVQLVESGGGLVQPGESLRLSCKASGFSLDYYALGWFRQAPGKEREGISCITSSDASAYYTDSVKGRFTISRDNSKNTVYLQMNSLKTEDTAIYYCAAALLTCSSYYDAYTYWGQGTQVTVSS
notes: as for B2
For B4, the “IL-17A/F-induced IL-6 production in HT-1080 cells, Emax” value in [5] was 106%. The “IL-17A/F-induced IL-6 production in HT-1080 cells, IC50” value in [5] is 28.1 nM. The off-rate (koff) with human IL-17A [1] was determined as 0.00016 s⁻¹; in [6], 3.8e-05 s⁻¹. Besides, the 50% inhibitory concentration (IC50) stood at 0.039 nM in [7], 0.081 nM in the assay with human IL-17A [3], 0.14 nM in assay [8] and 0.461 nM with human IL-17A [4]. Moreover, the “IL-17A-induced IL-6 production … Emax” value with human IL-17A [2] was 98.5%. Moreover, the “IL-17A-induced IL-6 production … IC50” value with human IL-17A [2] was found to be 4 nM.

B5: 01A01 (VHH)
VHH: EVQLVESGGGLVQAGGSLRLSCAASGFTFDDYDIGWFRQAPGKEREGVSCFTSSDGRTFYADSVKGRFTVSADNAKNTVYLQMNSLEPEDTAVYFCAAVNTFDESAYAAFACYDVVRWGQGTQVTVSS
notes: as for B1
As to B5, in the assay with human IL-17A [1], the dissociation rate constant (koff) is 8.5e-05 s⁻¹. In the assay with human IL-17A [2], the “IL-17A-induced IL-6 production … Emax” value was determined as 104% and the “IL-17A-induced IL-6 production … IC50” value was 2.7 nM. Further, the concentration for half-maximal inhibition (IC50) with human IL-17A [3] was found to be 0.051 nM. Also, the IC50 with human IL-17A [4] came to 0.211 nM.

B6: 07B11 (VHH)
VHH: EVQLVESGGGLVQAGGSLRLSCVASGRAFSSYVMGWFRQAPGMEREFVALIRWSDGITGYVDSVKGRFTISRDNAKNTVYLQMNSLKPEDTAVYYCAAAVRPGDYDYWGQGTQVTVSS
notes: Class 3
Consider B6, for which the OD is 0.03 OD in the assay with human IL-17A [9], 0.007 OD in the assay with guinea pig IL-17A, -0.0105 OD in the assay with rat IL-17F and -0.0005 OD in the assay with mouse IL-17F.

B7: 03C07 (VHH)
VHH: EVQLVESGGGLVQAGGSLRLSCAASGFTFDDYAIGWFRQAPGKEREAVSCFSSSDGSIYYADSVKGRFTISSDNAKNTVYLQMNSLKPEDTAVYYCAGGGGSYYYTQLNYCYDMDYWGKGTQVTVSS
notes: as for B2
In turn, B7 yielded an off-rate constant (koff) with human IL-17A [1] of 0.0002 s⁻¹. In the assay with human IL-17A [2], the “IL-17A-induced IL-6 production … Emax” value was found to be 101% and the “IL-17A-induced IL-6 production … IC50” value amounted to 4.2 nM. Also, the IC50 in the assay with human IL-17A [3] amounted to 0.084 nM. In the assay with human IL-17A [4], this molecule had a half-inhibitory concentration (IC50) of 0.371 nM.

B8: 06E11 (VHH)
VHH: EVQLVESGGGLVQAGGSLRLSCPVSGRAFSRGRLGWFRQAPGKEREFVAVAHWSGAITSYADSVKGRFTFSRDNAKNTMNLQMNSLKPEDTAVYYCAADSETSGNWVYWGQGTQVTVSS
notes: Class 3
As to B8, the OD is 0.006 OD with guinea pig IL-17A, 0.0085 OD with rat IL-17F and 0.0215 OD with mouse IL-17F.

B9: 13E05 (VHH)
VHH: EVQLVESGGGKVQAGDSLTLSCVASGGTFSNYAAWFRQAPGKDRRELVVSIFRTGSITYTADSVKGRFTASRVNTKNTVYLQMNSLKPEDTAVYYCASAYNPGVGYDYWGQGTQVTVSS
notes: as for B1
B9: the dissociation rate constant (koff) in the assay with human IL-17A [1] amounted to 0.0016 s⁻¹. Moreover, the “IL-17A-induced IL-6 production … Emax” value in the assay with human IL-17A [2] is 101%. Besides, in the assay with human IL-17A [2], the “IL-17A-induced IL-6 production … IC50” value came to 12.3 nM. In addition, the IC50 with human IL-17A [3] stood at 0.159 nM; with human IL-17A [4] it was 1.09 nM.

B10: 13B05 (VHH)
VHH: EVQLVESGGRLVQAGGSLRLSCAASGRTFTSYPMGWFRQAPGKEREFVAAISMSGDDTAYTDFVRGRFTISRDDARNTVYLHMTSLKPEDTAVYYCAARTSYDGTYDYIDDYSYWGQGTQVTVSS
notes: as for B1
Take B10: the koff with human IL-17A [1] worked out at 0.0003 s⁻¹. Further, in the assay with human IL-17A [2], the “IL-17A-induced IL-6 production … Emax” value is 104%. For the same molecule, in the assay with human IL-17A [2], the “IL-17A-induced IL-6 production … IC50” value was 14 nM. Also, the IC50 worked out at 0.118 nM in the assay with human IL-17A [3] and 0.249 nM with human IL-17A [4].

B11: 07B09 (VHH)
VHH: EVQLVESGGGLVQAGGSLRLSCGASGGTFSSYATGWFRQAPGKEREFVAVLRWSDGHTAYADSVKGRFTISRDGAKNTMYLQMSSLKPEDTAIYYCTTATRPGEWDYWGQGTQVTVSS
notes: Class 3
For the molecule B11, the OD is 0.005 OD with marmoset IL-17A; 0.005 OD with human IL-17A [9]; 0.009 OD with guinea pig IL-17A; 0.0025 OD with rat IL-17F; -0.0015 OD in the assay with mouse IL-17F.

B12: 24G10 (VHH)
VHH: EVQLVESGGGLVQAGGSLRLSCGAAGGTFSSYATGWFRQAPGKEREFVAVFRWSDSHTAYADSVKGRFTISRDGAKNTLYLQMSSLKPEDTAIYYCTTATRPGEWDYWGQGTQVTVSS
notes: Class 3
For B12, the OD was 0.009 OD in the assay with human IL-17A [9], 0.008 OD with guinea pig IL-17A, 0.0025 OD in the assay with rat IL-17F and -0.0005 OD in the assay with mouse IL-17F.

B13: 08H01 (VHH)
VHH: EVQLVESGGGLVQAGGSLRLSCGASGGTFSSYATGWFRQAPGKEREFVAVLRWSDSHTAYADSVEGRFTISRDGAKNTVYLQMSSLKPEDTAIYYCTTGTRPGEWHYWGQGTQVTVSS
notes: Class 3
Turning to B13, the results for the OD in the assay with guinea pig IL-17A, with rat IL-17F and with mouse IL-17F were 0.007 OD, 0.0045 OD and -0.0005 OD, respectively.

B14: 24B08 (VHH)
VHH: EVQLVESGGGLVQAGGSLRLSCAVSGGTFSTYKMGWFRQAPGKEREIVARISTNGPTAYAEFVKGRFTVSRENTKNTVYLQMNSLNIEDTAVYYCAAGYDSLFAGYDYWGQGTQVTVSS
notes: Class 3
In the case of B14, the OD with marmoset IL-17A was 0.129 OD; with human IL-17A [9], 0.103 OD; with guinea pig IL-17A, 0.012 OD; with rat IL-17F it was 0.0035 OD; with mouse IL-17F, -0.0015 OD.
